B1: Clathrin heavy chain 1 (Arabidopsis thaliana (Mouse-ear cress)), Q0WNJ6 (parent)
chain: MAAANAPIIMKEVLTLPSVGIGQQFITFTNVTMESDKYICVRETAPQNSVVIIDMNMPMQPLRRPITADSALMNPNSRILALKAQVPGTTQDHLQIFNIEAKAKLKSHQMPEQVAFWKWITPKMLGLVTQTSVYHWSIEGDSEPVKMFDRTANLANNQIINYKCSPNEKWLVLIGIAPGSPERPQLVKGNMQLFSVDQQRSQALEAHAASFAQFKVPGNENPSILISFASKSFNAGQITSKLHVIELGAQPGKPSFTKKQADLFFPPDFADDFPVAMQVSHKFNLIYVITKLGLLFVYDLETASAIYRNRISPDPIFLTSEASSVGGFYAINRRGQVLLATVNEATIIPFISGQLNNLELAVNLAKRGNLPGAENLVVQRFQELFAQTKYKEAAELAAESPQGILRTPDTVAKFQSVPVQAGQTPPLLQYFGTLLTRGKLNSYESLELSRLVVNQNKKNLLENWLAEDKLECSEELGDLVKTVDNDLALKIYIKARATPKVVAAFAERREFDKILIYSKQVGYTPDYMFLLQTILRTDPQGAVNFALMMSQMEGGCPVDYNTITDLFLQRNLIREATAFLLDVLKPNLPEHAFLQTKVLEINLVTFPNVADAILANGMFSHYDRPRVAQLCEKAGLYIQSLKHYSELPDIKRVIVNTHAIEPQALVEFFGTLSSEWAMECMKDLLLVNLRGNLQIIVQACKEYCEQLGVDACIKLFEQFKSYEGLYFFLGSYLSMSEDPEIHFKYIEAAAKTGQIKEVERVTRESNFYDAEKTKNFLMEAKLPDARPLINVCDRFGFVPDLTHYLYTNNMLRYIEGYVQKVNPGNAPLVVGQLLDDECPEDFIKGLILSVRSLLPVEPLVAECEKRNRLRLLTQFLEHLVSEGSQDVHVHNALGKIIIDSNNNPEHFLTTNPYYDSKVVGKYCEKRDPTLAVVAYRRGQCDEELINVTNKNSLFKLQARYVVERMDGDLWEKVLTEENEYRRQLIDQVVSTALPESKSPEQVSAAVKAFMTADLPHELIELLEKIVLQNSAFSGNFNLQNLLILTAIKADPSRVMDYINRLDNFDGPAVGEVAVDAQLYEEAFAIFKKFNLNVQAVNVLLDNVRSIERAVEFAFRVEEDAVWSQVAKAQLREGLVSDAIESFIRADDTTQFLEVIRASEDTNVYDDLVRYLLMVRQKVKEPKVDSELIYAYAKIERLGEIEEFILMPNVANLQHVGDRLYDEALYEAAKIIYAFISNWAKLAVTLVKLQQFQGAVDAARKANSAKTWKEVCFACVDAEEFRLAQICGLNIIIQVDDLEEVSEYYQNRGCFNELISLMESGLGLERAHMGIFTELGVLYARYRYEKLMEHIKLFSTRLNIPKLIRACDEQQHWQELTYLYIQYDEFDNAATTVMNHSPEAWEHMQFKDIVAKVANVELYYKAVHFYLQEHPDIINDLLNVLALRLDHTRVVDIMRKAGHLRLIKPYMVAVQSNNVSAVNEALNEIYAEEEDYDRLRESIDLHDSFDQIGLAQKIEKHELVEMRRVAAYIYKKAGRWKQSIALSKKDNMYKDCMETASQSGDHDLAEQLLVYFIEQGKKECFATCLFVCYDLIRPDVALELAWINNMIDFAFPYLLQFIREYSGKVDELIKDKLEAQKEVKAKEQEEKDVMSQQNMYAQLLPLALPAPPMPGMGGGGYGPPPQMGGMPGMSGMPPMPPYGMPPMGGY
partner: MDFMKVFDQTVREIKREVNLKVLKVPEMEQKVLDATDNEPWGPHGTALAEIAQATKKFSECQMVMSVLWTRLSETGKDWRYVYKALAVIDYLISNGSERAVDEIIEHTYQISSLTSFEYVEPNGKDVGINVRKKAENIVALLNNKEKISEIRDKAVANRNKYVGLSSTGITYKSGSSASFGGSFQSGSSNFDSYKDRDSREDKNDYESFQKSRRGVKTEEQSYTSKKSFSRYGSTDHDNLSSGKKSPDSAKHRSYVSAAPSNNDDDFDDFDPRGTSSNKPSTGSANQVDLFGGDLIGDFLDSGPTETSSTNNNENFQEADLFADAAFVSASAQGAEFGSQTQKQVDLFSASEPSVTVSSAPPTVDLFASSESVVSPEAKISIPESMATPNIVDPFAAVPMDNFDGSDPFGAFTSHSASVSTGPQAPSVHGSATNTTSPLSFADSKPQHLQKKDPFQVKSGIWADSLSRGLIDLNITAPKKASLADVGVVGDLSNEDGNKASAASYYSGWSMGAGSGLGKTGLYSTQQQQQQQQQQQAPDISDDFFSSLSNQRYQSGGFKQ

Variants of: B1
Settings: with epn1_arath EPSIN1, Q8VY07

| Variant | effect of a mutation on the interaction |
| --- | --- |
| L470R | disrupting interaction |
